This data set concerns COc1cccc2c1C(=O)c1c(O)c3c(c(O)c1C2=O)C[C@@](O)(C(C)=O)C[C@@H]3O[C@H]1C[C@H](N)[C@H](O)[C@H](C)O1. Nature of the data set: cells, lysate or membranes named. The conditions noted are these: other: Lineweaver-Burk plots; rat canalicular vesicles; pH 7.4.

Sequence of Mdr1b P-gp (Rattus norvegicus) (chain, as listed by the source): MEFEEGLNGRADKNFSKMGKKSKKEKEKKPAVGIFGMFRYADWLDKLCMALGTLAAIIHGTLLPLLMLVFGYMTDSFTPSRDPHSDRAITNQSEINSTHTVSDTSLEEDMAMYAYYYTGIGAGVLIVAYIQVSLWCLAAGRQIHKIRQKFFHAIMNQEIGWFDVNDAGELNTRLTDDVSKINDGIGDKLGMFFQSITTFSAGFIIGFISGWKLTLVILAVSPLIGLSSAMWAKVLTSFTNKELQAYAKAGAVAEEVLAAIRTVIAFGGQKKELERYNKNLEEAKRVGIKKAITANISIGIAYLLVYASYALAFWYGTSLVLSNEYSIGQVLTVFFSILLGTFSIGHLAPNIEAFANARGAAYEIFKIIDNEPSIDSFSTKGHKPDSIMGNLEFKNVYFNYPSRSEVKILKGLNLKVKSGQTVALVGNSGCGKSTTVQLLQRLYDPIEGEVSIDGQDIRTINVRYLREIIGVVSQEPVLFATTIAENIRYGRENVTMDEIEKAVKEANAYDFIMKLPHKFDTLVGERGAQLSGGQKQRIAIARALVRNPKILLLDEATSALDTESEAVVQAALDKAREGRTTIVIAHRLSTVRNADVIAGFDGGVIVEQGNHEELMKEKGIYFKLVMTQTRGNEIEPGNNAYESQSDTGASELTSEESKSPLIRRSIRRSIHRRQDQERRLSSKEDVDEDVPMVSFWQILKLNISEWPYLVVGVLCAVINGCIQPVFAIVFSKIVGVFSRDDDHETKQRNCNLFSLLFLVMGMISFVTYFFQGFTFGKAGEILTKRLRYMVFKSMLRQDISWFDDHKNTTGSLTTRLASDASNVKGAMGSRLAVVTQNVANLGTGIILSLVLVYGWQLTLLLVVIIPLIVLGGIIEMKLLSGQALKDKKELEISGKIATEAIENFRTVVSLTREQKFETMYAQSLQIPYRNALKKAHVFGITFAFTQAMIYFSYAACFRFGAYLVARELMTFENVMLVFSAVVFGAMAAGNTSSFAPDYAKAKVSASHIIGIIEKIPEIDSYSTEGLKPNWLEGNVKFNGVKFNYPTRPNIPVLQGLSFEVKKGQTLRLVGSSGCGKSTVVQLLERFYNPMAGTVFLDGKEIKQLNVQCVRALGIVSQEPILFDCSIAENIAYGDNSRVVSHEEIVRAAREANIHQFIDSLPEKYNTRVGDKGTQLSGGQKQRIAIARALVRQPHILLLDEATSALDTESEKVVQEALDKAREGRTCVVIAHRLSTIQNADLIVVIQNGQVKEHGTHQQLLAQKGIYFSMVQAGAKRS

Consider Mdr1b P-gp (Rattus norvegicus), for which the Km was 33 µM.

Values taken from paper PMC2362229.
